Source: patent publication US20240131065A1 (CRAGE MEDICAL, published 2024)

Molecular target: T1, CD94 monomeric Fc fusion protein (human, UniProt P0DOX5 223-449 = IgG part)
T1 construct: also called huFc(hole)-CD94-ECD and huFc(knob); human CD94 monomeric Fc fusion protein antigen
Assay: phage display panning on coated CD94 monomeric Fc fusion protein, then ELISA
Description: Briefly, immunotubes were coated with 10 μg/ml of the antigene CD94 monomeric Fc fusion protein prepared above, blocked with phosphate buffered saline (MPBS) comprising 3% […] for 2 hours at room temperature. In order to screen for antibodies that specifically bind to CD94, the phage library was added to the immunotubes coated with the antigen CD94 monomeric Fc fusion protein and bound for 1.5 hours. The non-specific phages were then washed away, and the bound phages were eluted with 100 mM triethylamine and infected E. coli TG1 in logarithmic growth phase. Expanded culture of the eluted phages, and the expanded phage library was purified using PEG/NaCl precipitation for the next round of screening.
A total of three rounds of screening were performed, and 9 positive clones that specifically bind to CD94 were obtained after three rounds of screening. These clones were subsequently subjected to ELISA and sequencing analysis, two unique sequences were selected, 2B1 and 2F1, respectively. The ELISA results are shown in FIG. 2 (NA is the blank control group).

B1: 2B1 (Fab, V domains shown)
VH: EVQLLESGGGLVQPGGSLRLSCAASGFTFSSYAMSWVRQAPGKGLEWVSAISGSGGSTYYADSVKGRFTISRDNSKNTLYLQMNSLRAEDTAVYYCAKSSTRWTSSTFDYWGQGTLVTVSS
VL: DIQMTQSPSTLSASVGDRVTITCRASQSISSWLAWYQQKPGKAPKLLIYDASSLESGVPSRFSGSGSGTEFTLTISSLQPDDFATYYCQQYYFYPYTFGQGTKVEIKR
notes: Clone from a fully human Fab phage display library; also called antibody 2B1; CD94-specific antibody
  binding result: binds
